Reference: patent publication US12397052B2, “Microcapsule-based vaccine” (INSTITUTE OF PROCESS ENGINEERING, CHINESE ACADEMY OF …, priority 2018, dated 2025)

B1: simple antigen group: preparation of a simple fluorescent antigen (OVA labeled with dye Cy5), no carrier (protein, UniProt P01012 2-386, looked up)
Ovalbumin: GSIGAASMEFCFDVFKELKVHHANENIFYCPIAIMSALAMVYLGAKDSTRTQINKVVRFDKLPGFGDSIEAQCGTSVNVHSSLRDILNQITKPNDVYSFSLASRLYAEERYPILPEYLQCVKELYRGGLEPINFQTAADQARELINSWVESQTNGIIRNVLQPSSVDSQTAMVLVNAIVFKGLWEKAFKDEDTQAMPFRVTEQESKPVQMMYQIGLFRVASMASEKMKILELPFASGTMSMLVLLPDEVSGLEQLESIINFEKLTEWTSSNVMEERKIKVYLPRMKMEEKYNLTSVLMAMGITDVFSSSANLSGISSAESLKISQAVHAAHAEINEAGREVVGSAEAGVDAASVSEEFRADHPFLFCIKHIATNAVLFFGRCVSP
modifications: Cy5 dye label
notes: preparation of a simple fluorescent antigen (OVA labeled with dye Cy5), no carrier
B2: OVA: free OVA antigen (Sigma), low-dose several times or high-dose (60 μg) a single time (protein, UniProt P01012 2-386, looked up)
Ovalbumin: B1 Ovalbumin

Key:
OVA+ cells = experiment: Antigen utilization in thigh muscle by flow cytometry (OVA+ cells); type: in vivo, C57BL/6 mice; conditions: 5th day
Description: Five days later, the mice were killed, and their muscle tissues containing the microspheres were taken out, cut into small pieces with scissors, ground into a suspension, resuspended in PBS at 4° C., and centrifuged to remove the supernatant. To the centrifugal residue, was added 1 mL of a solution of an enzyme mixture (made by dissolving collagenase D and 100 U/mL recombinant DNase I in RPMI 1640 medium) at a concentration of 1 mg/mL. The mixture was incubated at 37° C. for 30 min, washed with PBS, and subjected to filtration with a 20 μm cell sieve to get rid of impurities, giving a single-cell suspension. […] The BD LSRFortessa flow cytometer was used to detect OVA^+ cells, CD 11c^+OVA^+ cells, and F4/80^+OVA^+ cells, and the data was analyzed using the Flowjo software.
In the embedding group, as a result of the excellent antigen-retention capability and antigen-release capability, the number of OVA^+ cells increased by about 50 times, the endocytosis of OVA increased by 4 times or more, and the utilization of the antigen increased by 200 times or more. […] The utilization of the antigen was calculated by normalizing the number of OVA^+ cells multiplied by the fluorescence intensity using the utilization of the antigen of the simple antigen group.

E.G7 tumor cells = experiment: E.G7 lymphoma solid tumor model
Description: To construct E.G7 tumor-bearing mice models, 1×10^6 E.G7 tumor cells (purchased from ATCC) were injected into 6-8 weeks old female C57BL/6 mice (purchased from Beijing Weitonglihua Experimental Animal Co., Ltd.) on the armpit, and the tumor-bearing mice were randomly divided into groups each consisting of 6 mice. The mice were vaccinated when the tumor grew to a volume of 50-60 mm^3 on the 4th day. […] The volume of the tumor was calculated by this formula: V=1/2×L×W^2 (where L is the length of the tumor, and W is the width of the tumor).

Molecule	fluorescence intensity of intracellular OVA (OVA+ cells)	number of OVA+ cells (OVA+ cells)	25-day survival rate (SR) (E.G7 tumor cells; mouse, in vivo) [%]	tumor growth (E.G7) (E.G7 tumor cells; vaccinated on 4th day)
B1	very weak	small	–	–
B2	–	–	17	not inhibited
